Where “and” joins values, the source holds several entries; their conditions need not be identical. Identical values can stand only once.

The source of these data is article PMC10308643, “Nesfatin-3 possesses divalent metal ion binding properties, which remain hidden in the nucleobindin-2 precursor protein” (Cell Communication and Signaling : CCS, 2023).

The target in series [1] is nesfatin-3 from Gallus gallus (Gallus gallus). Put plainly: AUC; sedimentation velocity, c(s) analysis; 0.5, 0.75 and 1.0 mg/ml protein in 20 mM Tris pH 7.5, 150 mM NaCl, 800 µM ZnCl2; 20 °C, 50 000 rpm; monomer-dimer(-tetramer).
Series [2] has the same target. Put plainly: AUC; sedimentation velocity, c(s) analysis; 0.5, 0.75 and 1.0 mg/ml protein in 20 mM Tris pH 7.5, 150 mM NaCl, 5 mM EDTA (apo form); 20 °C, 50 000 rpm; monomer-dimer.
For series [3] the target is unchanged. Description: AUC; sedimentation velocity, c(s) analysis; 0.5, 0.75 and 1.0 mg/ml protein in 20 mM Tris pH 7.5, 150 mM NaCl, 300 µM ZnCl2; 20 °C, 50 000 rpm; monomer-dimer.
Series [4] shares this target. Description: AUC; sedimentation velocity, c(s) analysis; 0.5, 0.75 and 1.0 mg/ml protein in 20 mM Tris pH 7.5, 150 mM NaCl, 10 mM CaCl2; 20 °C, 50 000 rpm; monomer-dimer.
The target is the same in series [5]. Description: AUC; sedimentation velocity, c(s) analysis; 0.5, 0.75 and 1.0 mg/ml protein in 20 mM Tris pH 7.5, 150 mM NaCl, 100 µM ZnCl2; 20 °C, 50 000 rpm; monomer-dimer(-tetramer).
Series [6] shares this target. Description: AUC; sedimentation velocity, c(s) analysis; 0.5, 0.75 and 1.0 mg/ml protein in 20 mM Tris pH 7.5, 150 mM NaCl, 10 mM MgCl2; 20 °C, 50 000 rpm; monomer-dimer.
Series [7] concerns the molecule itself. Put plainly: AUC; sedimentation velocity, c(s) analysis; 0.5, 0.75 and 1.0 mg/ml protein in 20 mM Tris pH 7.5, 150 mM NaCl, 5 mM EDTA (apo form); 20 °C, 50 000 rpm; monomer-dimer.
Series [8] concerns the molecule itself. The series is described as above. The source holds these as a separate data set.
Series [9] concerns the molecule itself. Description: AUC; sedimentation velocity, c(s) analysis; 0.5, 0.75 and 1.0 mg/ml protein in 20 mM Tris pH 7.5, 150 mM NaCl, 10 mM MgCl2; 20 °C, 50 000 rpm; monomer-dimer.

What is called stoichiometry N is the number of molecules, sites or subunits per partner or assembly. As for “nesfatin-3 from Gallus gallus (domain or fragment)”, the percent dimer is 90% and 91% and 88% in series [1]; 75% and 76% and 77% in [2]; 59% and 64% and 70% in [3]; 76% and 77% and 74% in series [4]; 74% and 80% and 79% in series [5]; 100% and 83% and 92% in series [6]. Besides, the stoichiometry N in series [2] amounted to 2. Moreover, the dimer-to-monomer ratio (dimer:monomer) in series [6] was determined as 9.

B1: nesfatin-3 from Homo sapiens (domain or fragment, UniProt P80303 190-420, looked up)
chain: EYLKTLNEEKRKEEESKFEEMKKKHENHPKVNHPGSKDQLKEVWEETDGLDPNDFDPKTFFKLHDVNSDGFLDEQELEALFTKELEKVYDPKNEEDDMVEMEEERLRMREHVMNEVDTNKDRLVTLEEFLKATEKKEFLEPDSWETLDQQQFFTEEELKEYENIIALQENELKKKADELQKQKEELQRQHDQLEAQKLEYHQVIQQMEQKKLQQGIPPSGPAGELKFEPHI
notes: also called hsNesfatin-3; apo-hsNesfatin-3; source: expressed from pQE-80L/HRV3C and purified as reported previously [16, 17]
On to B1, for which the percent dimer in series [7] and in [9] was 100% each time. For the same molecule, in series [8], the “stoichiometry N” value turned out to be 2.
